Results taken from article doi:10.1101/2019.12.19.882902.

Experiments:
[1] = biological target: AF647-TFIIB (TFIIB-SNAP);TBP;TFIIF;RNA polymerase II (human;human;human;human, UniProt Q00403;P20226;P35269;P13984;P24928;P30876;P19387;O15514;P19388;P61218;P62487;P52 …, |||); assay: EMSA
[2] = biological target: TFIIB (untagged);TBP;TFIIF;RNA polymerase II (human;human;human;human, UniProt Q00403;P20226;P35269;P13984;P24928;P30876;P19387;O15514;P19388;P61218;P62487;P52 …, |||); assay: EMSA
Chain of TFIIB (untagged);TBP;TFIIF;RNA polymerase II (Q00403 whole entry, chain 1 of 2): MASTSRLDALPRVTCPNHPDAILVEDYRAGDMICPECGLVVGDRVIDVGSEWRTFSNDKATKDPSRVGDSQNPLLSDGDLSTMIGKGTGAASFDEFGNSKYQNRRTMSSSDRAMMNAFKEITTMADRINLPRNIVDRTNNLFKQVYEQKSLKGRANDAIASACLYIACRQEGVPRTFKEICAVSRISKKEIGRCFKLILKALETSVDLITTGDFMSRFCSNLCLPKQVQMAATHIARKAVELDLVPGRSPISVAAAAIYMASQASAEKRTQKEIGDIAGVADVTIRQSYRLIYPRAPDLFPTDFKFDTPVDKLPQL
Chain of TFIIB (untagged);TBP;TFIIF;RNA polymerase II (P20226 whole entry, chain 2 of 2): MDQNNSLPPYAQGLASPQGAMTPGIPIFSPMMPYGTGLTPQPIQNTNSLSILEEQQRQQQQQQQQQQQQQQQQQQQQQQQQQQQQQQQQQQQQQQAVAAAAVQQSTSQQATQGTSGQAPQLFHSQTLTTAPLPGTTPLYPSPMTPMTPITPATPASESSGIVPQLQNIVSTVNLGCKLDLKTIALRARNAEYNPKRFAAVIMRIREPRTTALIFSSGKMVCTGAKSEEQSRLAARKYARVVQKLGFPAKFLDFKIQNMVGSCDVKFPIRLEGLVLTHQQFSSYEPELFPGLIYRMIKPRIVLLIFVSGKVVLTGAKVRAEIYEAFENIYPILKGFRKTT

Chain of AF647-TFIIB (TFIIB-SNAP);TBP;TFIIF;RNA polymerase II (Q00403 whole entry, chain 1 of 2): as the sequence (Q00403 whole entry, chain 1 of 2) above
Chain of AF647-TFIIB (TFIIB-SNAP);TBP;TFIIF;RNA polymerase II (P20226 whole entry, chain 2 of 2): as the sequence (P20226 whole entry, chain 2 of 2) above

B1: three piece AdMLP DNA (-40 to +37), pre-melted bubble (dsDNA)
DNA 1: AAGGGGGGCTATAAAAGGGGGTGGGGGCGCGAAGCAGGAGTAGACTATCTTTAATCACTA
DNA 2: CCTGAGGTTAGTGTGAGTAGTGATTAAAGATAGTGATGAGGACGAACGCGCCCCCACCCCCTTTTATAGCCCCCCTT
DNA 3: CTCACACTAACCTCAGG
- binding result [1]: binds
- binding result [2]: binds
